{"source": "a protein production outcome set (Wang et al. 2014)"}
{"test": "label from the status in PepcDB records"}
{"sequence": "AADERVKEMWAYSPSMDRNVPLVVITADESAGPRPVIYLLNGGDGGEGAANWVMQTDVLDFYLEKNVNVVIPMEGKFSYYTDWVEENASLGGKQMWETFLVKELPGPLEEKLNTDGQRAIAGMSMSATTSLLFPQHFPGFYDAAASFSGCAATSSLLPWEYLKLTLDRGNATPEQMWGPRGGEYNIYNDALINSDKLRGTELYVSNASGLAGEWESVDSPRFEGLNQQVQSIAMAETVVTGGIIEAATNKCTHDLKAKLDSAGIPADWNLRPTGTHSWGWWQDDLRGSWTTFARAFEL", "protein production": "failed"}
{"sequence": "AAGAVRTDPVIHLHGSRSEDEPTTVLVHAGTATIMPYRALITEIRRRSPGLAEVVGVEVPDLSGFLAAPPDGLIERMAADYARALTADGRHRFHVVGYCLGGLIATEVARNLAESGAEVESLTVISSHSPRFRLDDELLAEYSFAVMMGIDPADLGFPDDQYRVAAAADTVLAASPGVLPDGGLAALGGEFEDVASRFRRLADVPRATRIARMCEAVPASAGTYEPDHMTRLFLAFRQSVFAITRYRAEPYAGDITFLRHDGAYPFPGSKDAVTAYWEELTLGDLDIVDIGGDHYSCLSVEHAPGILKTLGELTQGAITR", "protein production": "failed"}
{"sequence": "AARNLSKEEYAANHPAGRIGKSLIFKVKDVMKKQEELPVCKEGDLIMDQLVELTSKGCGCLLVVDEHSRLIGTFTDGDLRRTLKASGEAIFKLSVGEMCNRKPRTIGPETMAVEAMKKMESPPSPVQFLPVVNEDNTLIGIVTLHGLVSA", "protein production": "failed"}
{"sequence": "ACEQNEDWVVNEPMQSFEENPEYAPLNTIPDWVSEKVTPKEYELWRTMSSRYEINYSFLKKDISEKRKKEIYDCINNICERIEKGQINKYEGFLNIADEDGTTLSDSQYFGRIATRSPEGGAEYKTNGCTLYTHSLGPYIKAAVTYKKSDDDVTITSSSVYTGSPYLGNDPSFSGASSVSYDKDKKLIAASCSGTLSFKDGSRKVEVTVQKTGFMIP", "protein production": "not failed"}
{"sequence": "ADKFTFIGFLSKKDSEQKKQLEELMPLDSTLIFYESPFRVGKTLENVRAIFGEKTKVVLARELTKKFESYYRGDITQALNFIKSNRPRGEFVLLIKKIHEA", "protein production": "failed"}
{"sequence": "AEIVEGRDYTVLSAPQPTEGDSEHIEVIEFFWYGCPHCSDLHPHLSRWLENKPADVAFRFVPAILRNNWVPGAKTFYAMESLGLTQTLHDKVYHAIHREKTDLSKEATLFDWIGKQGVDRDKFIGAYNSFTVQNQANRSAQMIRQYKLTGVPALVVDGRYLTSGKAGGTPQDTISVLNQLIEK", "protein production": "failed"}
{"sequence": "AEMKTYSHRTMPSACTLVMCSSVESGLPGRDGRDGREGPRGEKGDPGLPGAAGQAGMPGQAGPVGPKGDNGSVGEPGPKGDTGPSGPPGPPGVPGPAGREGPLGKQGNIGPQGKPGPKGEAGPKGEVGAPGMQGSAGARGLAGPKGERGVPGERGVPGNTGAAGSAGAMGPQGSPGARGPPGLKGDKGIPGDKGAKGESGLPDVASLRQQVEALQGQVQHLQAAFSQYKKVELFPNGQSVGEKIFKTAGFVKPFTEAQLLCTQAGGQLASPRSAAENAALQQLVVAKNEAAFLSMTDSKTEGKFTYPTGESLVYSNWAPGEPNDDGGSEDCVEIFTNGKWNDRACGEKRLVVCEF", "protein production": "failed"}
{"sequence": "AGGEDRGDGEPVSVVTVRVQYLEDTDPFACANFPEPRRAPTCSLDGALPLGAQIPAVHRLLGAPLKLEDCALQVSPSGYYLDTELSLEEQREMLEGFYEEISKGRKPTLILRTQLSVRVNAILEKLYSSSGPELRRSLFSLKQIFQEDKDLVPEFVHSEGLSCLIRVGAAADHNYQSYILRALGQLMLFVDGMLGVVAHSDTIQWLYTLCASLSR", "protein production": "failed"}
{"sequence": "AGVMTGAKFTQIQFGMTRQQVLDIAGAENCETGGSFGDSIHCRGHAAGDYYAYATFGFTSAAADAKVDSKSQEKLLAPSAPTLTLAKFNQVTVGMTRAQVLATVGQGSCTTWSEYYPAYPSTAGVTLSLSCFDVDGYSSTGAYRGSAHLWFTDGVLQGKRQWDLV", "protein production": "not failed"}
{"sequence": "AGVSISAQNLIKNEKFATEVTNKVTNPSKATAGEWFIMNNEADGVTTIAWEQTGDAKYPNAMKIDNSGAEKNTSWYKAFLGQRITDGLEKGIYVLTFYAKAKEAGTPVSVYIKQTNEEKNDNGKLNTTFFMRRDYDADAQPNASGAQYNFKIKDADKWTKVVVYYDMGQVVNAISSKKSNPALEVSDTDDDAAILKDCYVAILGQNKGGVVEISDVTLKKK", "protein production": "not failed"}
{"sequence": "AGVVVPKYTPSTENPGGPGEEPGDGLIDPAEPLDRGFMHLKGRELKSLNSISITGLNDGEKVILSTLAGLAARVTGDQVYINEGGPSSVWLKQMQNKYGIPVNTYNALAPLVQHYVETGVIKGYIVYTPYSEGQSHSINVATSLCGLLRGIAVPESLVDKVKAMGVTTELMDVRSYDEKWLYENYKDQLDKSLAADMKPEIFHHLRDYITMTNAFAFYDYNARRDWSWRTSILKDLDKGAYCFGYYDLDEWGMVNNASQLGVSMLPTDQAANLATLSSIYDTTGLKQRPATKEVVTEENVHYVTFLVSDGDNIAFNLWGQQGYMDHDLHGQFPLGYTISPSLYDLAPAALRWYYENSKEGDYFVAGPSGSSYIFPSKMSDADLDDYLAKLNEYVDKSGLNICNILDQKIMDNPKVYNKYLAQPNIDAIFYTGYGEKGDGRIKFSDNGKPVIEQRSVLWEGIDGGSNRGEESTVISQINSRSANPHSADGYTFVFVHCWTKNQQSIKTVIDGLNDNVRVVPVDQFVQLVKQNLGPK", "protein production": "not failed"}
{"sequence": "AHHHHHHGSVVKRTMTKKFLEEAFAGESMAHMRYLIFAEKAEQEGFPNIAKLFRAIAYAEFVHAKNHFIALGKLGKTPENLQMGIEGETFEVEEMYPVYNKAAEFQGEKEAVRTTHYALEAEKIHAELYRKAKEKAEKGEDIEIKKVYICPICGYTAVDEAPEYCPVCGAPKEKFVVFE", "protein production": "not failed"}
{"sequence": "AIAAIAEKAKGKEWTSTEKSREEDQQASNQPNSIALPGTSAKRTKEKMSVKGSKVLCPKKKAEHTDNPRPQKKIPIPPLPSKLPPVNLIHRDILRAWCQQLKLSSKGQKLDAYKRLCAFAYPNQKDFPSTAKEAKIRKSLQKKLKVEKGETSLQSSETHPPEVALPPVGEPPALENSTALLEGVNTVVVTTSAPEALLASWARISARARTPEAVESPQEASGVRWCVVHGKSLPADTDGWVHLQFHAGQAWVPEKQEGRVSALFLLPASNFPPPHLEDNMLCPKCVHRNKVLIKSLQWE", "protein production": "failed"}
{"sequence": "AIAEHKEVVLLLLLFLKSGQGEPLDDYVNTQGPSLFSVTKKQLGAGSREECAAKCEEDKEFTCRAFQYHSKEQQCVIMAENRKSSIIIRMRDAVLFEK", "protein production": "not failed"}
{"sequence": "AIAQGENVDHAQPISTWSAEQELHLVVFTKPPIAGLTKQRLSREIGSTLATRISAALVENTLATAYDWLQGLDLQAGGTGAVHLYYTPVESEQAKAECVERWLDDSVRHRYPAFRIAPQKASKVQSTGDQKQDPLGSRLIQAFTEVTSLVDESRDAHVVVIGSDCPALDTAVLQQAFAALHAGHGAVIGPAQDGGYYLLGLAFAAAERTRWARVIYAAFGPHLVFSQNDVCARTVEALRNDGVRTICLPVTLNDVDTAQDLVHLPASMRPREWFSSANARLHKTSDLVETAPAPGSTTCDEEVDADKLDPSVQNVCSRQV", "protein production": "not failed"}
{"sequence": "AIATYPTNLEIIGGQGGSSFSFTGENNGASLEKIWVWVGGWQIKAVRAWLSDGRDETFGVPSGSHQEYVFTPGECFTSLSLWGNGAGTRLGAIKFKTNKGGEFFAHMTSWGLKTEYPMDVGSGYCLGIVGRGGSDIDCMGFMFLNAVQSTVLTNVNYPTINQLIPKVATEEIKSVSFENKTSVKQEQKVETSKKVIKTSSWSMTKSFSSTFSVEVSAGIPEIAEVSTGFSISFGVESTHSLEQTDEKNETLTTTVEVPPKKKVDVHITIGRASFDLPYTGTVKITCKNGSVLQYETKGQYKGVAYTDIKVNTVEKDL", "protein production": "not failed"}
{"sequence": "AIQKQMLVPEVVVNKDGDWVTPVMKDEGSIQYFVVFRFINGNEIIEPKDKDYEKLGSFMRMFHEKTNGVLKSVPQTWRGYERPIYSEKKMIHEPLQCLLNTSFLSYEDKNKCLRIAERIQELTNSIQLREKQFVHGDMHFGNILVDKEDWYLLDFDECGFGYKEFDIGVPRLHLIASGQLEDAWGNFMMGYGENIS", "protein production": "failed"}
{"sequence": "AIQVFDVTAVNISATSLTLIWKVSDNESSSNYTYKIHVAGETDSSNLNVSEPRAVIPGLRSSTFYNITVCPVLGDIEGTPGFLQVHTPPVP", "protein production": "not failed"}
{"sequence": "AIVKRFEPLLLVPIGFGGILSNLPDAGLAMSAIENAVYAAKPEVMTAFSEVLQLSSYMPADIKQALSSATPLQMTTLHLLAEQYQYSDGM", "protein production": "failed"}
{"sequence": "AKESEQKVTIDSAKHEKHTKDKEENNSANTVFFDKINDLLVASVKEFEGTVGISYLDLETGEQRSVNGQHEFYTASTIKVPLTMLVADTVASGQKKWTDLIPYNAEEDYEEGTGIIAYNIQPEYPLKTLQEYAITYSDNIAKNMLYDTLGGDAKAKREMYQRYLHKTPSIEEPQFSSEDALVILQKLYTEKATKPDYQAIYDSMKQSVFHERMETPTTQGKVAHKIGSYDEFIHDMGILETPHPFALAIFTKGPDNAKSAAFIASVTDKLWQLQVSEYPNQ", "protein production": "not failed"}
{"sequence": "AKRVVFVTVGTTSFDALVKAVVSQNVKDELQKRGFTHLLIQMGRGIFFPTKCDGADGSLVVDYFTFSSSIADYIRSASLVISHAGSGSIFETLKLGKPLIVVVNEDLMDNHQCELAEALEERKHLYYTRPHSLHQTLTKMELGSLVQYTPGDGTPVARIIDRFLG", "protein production": "failed"}
{"sequence": "AKVVFYEKPGCVGNARQKALLTASGHELEVRNLLAEPWTRETLRPFFGDKPLIEWFNQSSPKVKAGAIDFAALGVEAALALMIEDPLLIRRPLMQSGDRREVGFDQATVHAWLG", "protein production": "failed"}
{"sequence": "ALFHKKLTEGVLMRDPKFLWCAQCSFGFIYEREQLEATCPQCHQTFCVRCKRQWEEQHRGRSCEDFQNWKRMN", "protein production": "not failed"}
{"sequence": "ALKQKIIGNGEKRVVTYAPTWREDDFISVGHYHFRWHFSLKKMMGLLPEDVMLLIRPHYLVTDRIDIKGFEDRVVIDSTTDMNEIYLITDLMVTDYSSVMFDFAILKRPMLFFAYDLEYYRDDLRGFYFDYYTELPGSIVTDETHLLAEIDQLLQNNFAELDPERFNKFAKRFVSWERGTAAQQVIEKINY", "protein production": "not failed"}
{"sequence": "ALPDPVKPKAPKAVNPFHLGMAGYTFVNFDLDTTLKTLERLDIHYLCIKDFHLPLNSTDEQIRAFHDKCAAHKVTGYAVGPIYMKSEEEIDRAFDYAKRVGVKLIVGVPNYELLPYVDKKVKEYDFHYAIHLHGPDIKTYPDATDVWVHTKDLDPRIGMCLDVGHDLRNGCDPVADLKKYHTRVFDMHIKDVTDSSKAGVGIEIGRGKIDFPALIRMMREVNYTGMCSLEYEKDMKDPFLGIAESIGYFKAVSDLT", "protein production": "not failed"}
{"sequence": "ANIYTFDFDEIESQEDFYRDFSQTFGLAKDKVRDLDSLWDVLMNDVLPLPLEIEFVHLGEKTRRRFGALILLFDEAEEELEGHLRFNVRH", "protein production": "not failed"}
{"sequence": "APSQGATANAETQTTIPLGDTSQNALDWPGVYEGVLPCASCEGIQTTLTLQADNSFELKSIYLGKDESIFKVAGKFDWDSNGSKITLSDGSKYLVGENQLLMLDTEGNRITGGLAEHYILKKKGM", "protein production": "not failed"}
{"sequence": "AQGLDGRMLVEAPEEVGAPADVAARLGIEPGALVVHRRRRATIGEDVVQLQDAWYPLEIARAAGLDRPGKVVGGVLGAMTGAGLSPTSTDHDVEVWVPSAQQAAELSLGSRVSVLVVERVTYDATVRVLELTRHTGAADRLTLTYKGLPLRATGAEGSTS", "protein production": "failed"}
